Assays:
[1] = tested on: Hepatitis B surface antigen (HBs Ag); test: magnetic-bead pull-down with q-PCR; details: BD buffer: 50 mM NaH2PO4 pH 8.0, 150 mM NaCl, 5 mM KCl, 2 mM MgCl2, 0.05% Tween-20; room temperature, 30 min; aptamer heated to 95 C and cooled at 4 C
HCV NS3 = test: magnetic-bead pull-down with q-PCR; details: BD buffer: 50 mM NaH2PO4 pH 8.0, 150 mM NaCl, 5 mM KCl, 2 mM MgCl2, 0.05% Tween-20; room temperature, 30 min; aptamer heated to 95 C and cooled at 4 C

AGCAGCACAGAGGTCCTGCATCACGAAGCCTGGCAGCGTGCTACCGTGAA [MP-1]
Kd [1]: 28.3 nM | Kd (HCV NS3): 23.3 nM

— PMC5527020
